Test results published in patent US20160272707A1 (COMPUGEN, published 2016).
Read-outs that look alike come from different tables or passages of the source.

T1: mouse VSTM5 (SEQ ID NO:11) expressed on HEK-293T cells (mouse, UniProt Q9D806 28-199)
T1 construct: also called mouse VSTM5 untagged
T1 sequence: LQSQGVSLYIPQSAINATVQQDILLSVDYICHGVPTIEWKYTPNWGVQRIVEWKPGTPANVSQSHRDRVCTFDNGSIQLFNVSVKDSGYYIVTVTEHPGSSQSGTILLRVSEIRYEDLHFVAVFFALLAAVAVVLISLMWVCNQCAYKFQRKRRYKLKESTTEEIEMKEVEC

T2: VSTM5 monomer (UniProt A8MXK1 29-147, limits assumed)
T2 construct: also called monomeric VSTM5 antigen; VSTM5 antigen
T2 sequence (looked up): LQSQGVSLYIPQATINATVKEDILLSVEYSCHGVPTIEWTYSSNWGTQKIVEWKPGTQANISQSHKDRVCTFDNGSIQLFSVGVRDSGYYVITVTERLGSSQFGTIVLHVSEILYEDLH

B1: 49-02.C11 (antibody, V domains shown)
VH: EVQLVESGGGLVQPGGSLRLSCAASGFTFSSYAMTWVRQAPGKGLEWVSVISGGGGTTYYADSVKGRFTISRDNSKNTLYLQMSSLRAEDTAVYYCAKGYSSGWPYYFDYWGQGTLVTVSS
VL: EIVLTQSPGTLSLSPGERATLSCRASQSGVTNFLAWYQQKPGQAPRLLIYATSSRATGIPDRFSGSASGTDFTLTITRLEPEDFAVYFCQQYASSPLTFGGGTKVEIKR
notes: also called 49-02.011
B2: 49-01.D06 (antibody, V domains shown)
VH: QVQLVQSGAEVKKPGTSVKVSCKASGYTFTTYTMHWVRQAPGQRLEWMGWINTGNGNTKYSQKFQDRVTITRDTSASTAYMELSSLKFEDTAVYYCAREGVTIFGDHSYYYGMDVWGQGTTVTVSS
VL: QPVLTQSSSASASLGSSVKLTCTLSSGHSSYIIAWHQQQPGKAPRYLMKLEGSGSYNKGSGLPDRFSGSSSGADRYLTISNLQSEDEADYYCETWDGNTWVFGGGTQLTVLG
B3: 50-01.A04 (antibody, V domains shown)
VH: QVQLVQSGAEVKKPGESLKISCKGSGYDFNNYWIGWVRQTPEKGLEWMGIVYPGDHPGDYHIRYGPSFQGQVTISADRSITTAYLQWRNLKASDTAMYYCARLGSSKDLDYWGQGTLVTVSS
VL: EIVLTQSPATLSLSPGERATLSCRASQSVSGHLDWYQQKPGQSPRLLIYDASNRATGIPARFSGSGSGTDFSLTISSLEPEDFAVYYCQHRSNWPWTFGQGTKVEIKR
B4: 47-01.D05 (antibody, V domains shown)
VH: QITLKESGPTLVKPTQTLTLTCTFSGFSLSTSGVGVGWIRQPPGKALEWLALIYWDDDKRYSPSLKSRLTITKDTSKNQVVLTMTNMDPVDTATYYCAHSGSVGYALYFDYWGQGTLVTVSS
VL: QAVLTQPPSSSASPGESARLTCTLPSDINVRYYNIYWYQQKPGSPPRYLLYYQSDSHKGRGSGVPSRFSGSKDTSANTGILLISGLQSEDEADYYCMIWASNGSGVLGGGTQLTVLG
B5: 50-01.F03 (antibody, V domains shown)
VH: EVQLVEIGGGLIQPGRSLRLSCAASGFTFSSYAMHWVRQAPGKGLEWVAVISYDGSKKYYADSVKGRFTISRDNSKNTVHLQMNSLRVEDTAVYYCALLSRPHYGLDVWGQGTTVTVSS
VL: QSVLTQPPSVSAAPGQKVTISCSGSRSNVGGNFLSWYQHVPGTPPQLLIYDNYKRPSEIPDRFSGSKSGTSATLDITGLQTGDEADYYCGTWDSSLSSWVFGGGTQLTVLG
B6: 50-01.D01 (antibody, V domains shown)
VH: QVQLVESGGGVVQPGRSRRLSCAASGFAFRNYGMHWVRQAPGKGLEWVAFISQNGGKKYYADSVTGRFTVSRDNSKNTLYLQINSLTTDDTAVFYCARSGSGSWGYSDFPGPFDHWGQGSLVTVSS
VL: EIVLTQSPGTLSLSPGERATLSCRASQNIFISFLAWYQQKPGQAPRLLLYGASNRATGIPDRFSGSGSGTDFTLTISRLEPEDFAVYYCQQYGSSPLTFGGGTKVEIKR
notes: also called 50-01.001
B7: 50-01.E02 (antibody, V domains shown)
VH: QVQLVESGGGVVQPGGSLKLSCVASGFTFSAYAMNWVRLVPGKGLEWVSGISGNGYSTFYPDSVQGRFTVSRDNSKNTLFLQIDRLTGGDTAIYYCAKVQTTVITPFQNWGQGTLVTVSS
VL: EIVLTQSPGTLSLSPGERATLSCRASQNIGSNFLAWYQQKPGQAPRLLIYGASTRANGIPDRFSGSKSETDFTLTISRLEPEDFAVYYCQQYDNSPYTFGQGTKLEIKR
B8: 52-01.A07 (antibody, V domains shown)
VH: EVQLVESGGGLVQPGRSLRLSCAASGFTFSSYAMHWVRQAPGKGLEWVAVISYDGSNKYYADSVKGRFTISRDNSKNTLYLQMNSLRAEDTAVYYCASKRELHSFDYWGQGTLVTVSS
VL: DVVMTQSPLSLPVTPGEPASISCRSSQSLLQSNGHNYLNWYLQKPGQSPQVLIYLASNRASGVPDRFSGSGSGTDFTLKISRVEAEDVGIYYCMQGLQIPLTFGGGTKVEIKR
B9: 49-01.F05 (antibody, V domains shown)
VH: QVQLQQWGAGLLKPSETLSLTCAVYGGSFSGYYWSWIRQPPGKGLEWIGEINHSGSTNYNPSLKSRVTISVDTSKNQFSLKLSSVTAADTAVYYCARGWRGGSFMDVWGQGTTVTVSS
VL: QSALTQPRSVSGSPGQSVTISCTGTSSDVGGYNYVSWYQQHPGKAPKLMIYDVIKRPSGVPDRFSGSRSGNTASLTISGLQAEDEADYYCCSYAGTHWVFGGGTKLTVLG
B10: 49-01.F01 (antibody, V domains shown)
VH: EVQLVESGGGVVKPGESLRLLCTASGLSFNKYSINWVRQAPGGGLEWVSSIESGSGHIYYADSLEGRFTISRDNAKNSVTLEMNSLRVEDTALYYCVSGPEDKWLLQLYFESWGQGTLVTVSS
VL: EIVLTQSPATLSLSPGERATLSCRTSQSSPSDNLAWYQHKPGQAPRLLIYGGSNRATGIPARFSGSGSGTDFTLTISSLEPEDFAVYYCQQYGSSPLTFGGGTKVDIKR

Experiments:
[1] = target: T1, mouse VSTM5 (SEQ ID NO:11) expressed on …; test: FACS titration on 293-muVSTM5 cells, panel 'Ab binding vs. mouse VSTM5'
[2] = target: T3, human VSTM5-EGFP (SEQ ID NO:133) expressed on HEK-293 cells (human); test: FACS, IgG1 at 22 nM on 293-huVSTM5 (VSTM5-EGFP) cells; grade from ratio to 293-MT control cells (850-2000)
T3 construct: Full-length human VSTM5 fused at its C-terminus to EGFP; also called VSTM5_GFP

[3] = target: T3, human VSTM5-EGFP (SEQ ID NO:133) …; test: FACS, IgG1 at 22 nM on 293-huVSTM5 (VSTM5-EGFP) cells; grade from ratio to 293-MT control cells (>2000)
[4] = target: T2, VSTM5 monomer; test: SPR, VSTM5 monomer binding to the IgG
[5] = target: T2, VSTM5 monomer; test: SPR, VSTM5 monomer binding to the IgG (equilibrium binding constant)
[6] = target: T3, human VSTM5-EGFP (SEQ ID NO:133) …; test: FACS, IgG1 at 22 nM on 293-huVSTM5 (VSTM5-EGFP) cells; grade from ratio to 293-MT control cells (50-400)
[7] = target: T3, human VSTM5-EGFP (SEQ ID NO:133) …; test: FACS titration of the human IgG1 on 293-huVSTM5 cells, 293-MT control cells as open squares; y axis MFI (anti-Human A647)
[8] = target: T3, human VSTM5-EGFP (SEQ ID NO:133) …; test: FACS, IgG1 at 22 nM on 293-huVSTM5 (VSTM5-EGFP) cells; grade from ratio to 293-MT control cells (400-850)
Experimental: Empty vector control cells and human VSTM5 EGFP suspension 293 cells were pelleted and stained in 50 μl of the indicated concentrations of anti-VSTM5 antibodies or isotype controls in FACS buffer at 4° C. for 60 mins. Cells were washed once in FACS buffer, re-suspended in 50 μl of 1:250 dilution of biotinylated anti-human IgG (Jackson cat#109-065-097) for 30 mins at 4° C. Cells were washed in FACS buffer, re-suspended in 50 μl of 1:100 dilution of SA-PE (Jackson cat#016-110-084) for 30 mins. Cells were washed twice and re-suspended in a final volume of 100 μl of FACS buffer. Samples were read on the Intellicyt HTFC. Data was analyzed by FCS Express (DeNovo, Calif., USA), exported to Excel (Microsoft, WA, USA) and plotted in GraphPad Prism® (GraphPad Software, Inc., CA, USA).

[9] = target: T3, human VSTM5-EGFP (SEQ ID NO:133) …; test: FACS titration of the human IgG1 on 293-huVSTM5 cells, 293-MT control cells as open squares; y axis MFI (anti-Human A647); remark: listed apart in the source
[10] = target: T3, human VSTM5-EGFP (SEQ ID NO:133) …; test: FACS, IgG1 at 22 nM on 293-huVSTM5 (VSTM5-EGFP) cells; grade from ratio to 293-MT control cells (<50)

Binder | binding result [1] | ratio of 293-huVSTM5 cell binding / 293-MT control cell binding (FACS) at 22 nM mAb [3] [ratio] | Kd [4] [nM] | Kd [5] [nM] | ratio of 293-huVSTM5 cell binding / 293-MT control cell binding (FACS) at 22 nM mAb [8] [ratio] | EC50 (read off the curve) [9] [nM] | other results
B1 | no binding |  |  |  |  |  | ratio of 293-huVSTM5 cell binding / 293-MT control cell binding (FACS) at 22 nM mAb [2]: 850 to 2000 ratio
B2 | no binding | > 2000 |  |  |  |  | 
B3 | no binding |  | 52.8 | 52.8 |  |  | ratio of 293-huVSTM5 cell binding / 293-MT control cell binding (FACS) at 22 nM mAb [6]: 50 to 400 ratio
B4 | no binding |  | 60.7 | 60.7 | 400 to 850 |  | EC50 (read off the curve) [7]: ~2 nM
B5 | no binding |  |  |  | 400 to 850 |  | EC50 (read off the curve) [7]: ~0.7 nM
B6 | no binding |  |  |  | 400 to 850 | ~0.6 | 
B7 | no binding |  |  |  |  | ~1 | ratio of 293-huVSTM5 cell binding / 293-MT control cell binding (FACS) at 22 nM mAb [2]: 850 to 2000 ratio
B8 | no binding |  |  |  |  |  | ratio of 293-huVSTM5 cell binding / 293-MT control cell binding (FACS) at 22 nM mAb [10]: < 50 ratio
B9 | no binding | > 2000 | 190 | 190 |  |  | 
B10 | no binding | > 2000 | 2 | 2 |  | ~1 | 
